The source of these data is PMC12992115 (Nature Cell Biology, 2026).

Values joined by “and” are separate entries in the source; they are usually repeats but may differ in a detail not shown here. Equal entries are not always repeated.

Series [1] concerns the target Biotinylated BicD2 (amino acids 25–400) (mouse) (UniProt Q921C5). The experiment in a line: three-colour single-molecule TIRF co-localization.
The target of series [2] is BicD2–rigor kinesin conjugate (BicD2(25–400)–SpyCatcher003 covalently linked to KIF5B(1–490) rigor mutant–SpyTag003) (mouse | not stated) (UniProt Q921C5). The experiment in a line: three-colour single-molecule TIRF co-localization.
In series [3] the target is BicD2–superfolder green fluorescent protein (sfGFP), amino acids 25–400 (UniProt Q921C5). The experiment in a line: pull-down + other: mass photometry.
The target in series [4] is BicD2(25–400) with SpyCatcher003 at the C terminus (mouse) (UniProt Q921C5). The experiment in a line: mass photometry.
The target of series [5] is truncated kinesin-1 rigor mutant (KIF5B(1–490)) with SpyTag003 at the C terminus (UniProt P33176). The experiment in a line: mass photometry.
Series [6] concerns the molecule itself. Kind of series: mass photometry.

Sequence of BicD2–superfolder green fluorescent protein (sfGFP), amino acids 25–400 (Q921C5 25-400): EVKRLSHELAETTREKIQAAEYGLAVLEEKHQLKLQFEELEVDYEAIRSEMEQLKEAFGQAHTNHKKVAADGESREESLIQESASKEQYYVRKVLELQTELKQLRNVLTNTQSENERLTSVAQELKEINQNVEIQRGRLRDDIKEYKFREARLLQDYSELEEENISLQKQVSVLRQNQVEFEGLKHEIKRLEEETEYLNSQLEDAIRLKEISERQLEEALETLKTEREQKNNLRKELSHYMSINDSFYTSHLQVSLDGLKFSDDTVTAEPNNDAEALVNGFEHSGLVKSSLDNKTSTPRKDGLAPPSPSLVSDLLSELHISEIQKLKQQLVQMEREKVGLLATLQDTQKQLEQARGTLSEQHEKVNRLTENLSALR
Sequence of Biotinylated BicD2 (amino acids 25–400) (mouse) (Q921C5 25-400): as above
Sequence of BicD2–rigor kinesin conjugate (BicD2(25–400)–SpyCatcher003 covalently linked to KIF5B(1–490) rigor mutant–SpyTag003) (mouse | not stated) (Q921C5 25-400, change not shown): as the sequence (Q921C5 25-400) above

As to “recombinant full-length human cytoplasmic dynein-1 complex co-expressed with its five accessory chains (from UniProt Q14204;Q13409;O43237;P63172;P63167;Q9NP97)”, the frequency of three-colour dynein co-localization came to 0.018 in series [1] and 0.028 in series [2].
For “cytoplasmic dynein from rat-brain lysate (complex)”, the stoichiometry N (dynein per DDB complex) in series [3] is 1 and 2.
The stoichiometry N is a count of units in the complex or per binding partner. For “BicD2(25–400) with SpyCatcher003 at the C terminus (from UniProt Q921C5 25-400) (domain or fragment)”, in series [4], the stoichiometry N stood at 2. In addition, in series [5], the stoichiometry N (BicD2:rigor kinesin (2:2)) came to 1.

B1: truncated kinesin-1 rigor mutant (KIF5B(1–490)) with SpyTag003 at the C terminus (domain or fragment)
chain: MADLAESNIKVMCRFRPLNESEVNRGDKYIAKFQGEDTVVIACKPYAFDRVFQSSTSQEQVYNDAAKKIVKDVLEGYNGTIFAYGQTSSGKNHTMEGKLHDPEGMGIIPRIVQDIFNYIYSMDENLEFHIKVSYFEIYLDKIRDLLDVSKTNLSVHEDKNRVPYVKGATERFVSSPDEVMDTIDEGKSNRHVAVTNMNEHSSRSHSIFLINVKQENTQTEQKLSGKLYLVDLAGSEKVSKTGAEGAVLDEAKNINKSLSALGNVISALAEGSTYVPYRDSKMTRILQDSLGGNARTTIVICCSPSSYNESETKSTLLFGQRAKTIKNTVSVNVELTAEQWKKKYEKEKEKNKILRNTIQWLENELNRWRNGETVPIDEQFDKEKANLEAFTVDKDITLTNDKPATAIGVIGNFTDAERRKAEEEIAKLYKQLDDKDEEINQQSQLVEKLKTQMLDQEELLASTRRDQDNMQAELNRLQAENDASKEEVKE
modifications: cyanine 5 label (Fig. 5d) or CF488 label (Fig. 5h)
B1: in series [6], the “stoichiometry N” value amounted to 2.
